From IntAct's records for PubMed 9867828

B1: Protein S100-A9 (Homo sapiens), P06702 (parent)
chain: MTCKMSQLERNIETIINTFHQYSVKLGHPDTLNQGEFKELVRKDLQNFLKKENKNEKVIEHIMEDLDTNADKQLSFEEFIMLMARLTWASHEKMHEGDEGPGHHHKPGLGEGTP
partner: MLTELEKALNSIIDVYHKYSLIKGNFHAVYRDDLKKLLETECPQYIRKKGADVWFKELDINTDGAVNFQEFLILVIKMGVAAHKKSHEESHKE

Variants of: B1
Conditions: with S100A8, P05109

Question: MTSKMSQLERNIETIINTFHQYSVKLGHPDTLNQGEFKELVRKDLQNFLKKENKNEKVIEHIMEDLDTNADKQLSFEEFIMLMARLTWASHEKMHEGDEGPGHHHKPGLGEGTP [C3S] was tested. Which “effect of a mutation on the interaction” value did it give?
Answer: decreasing interaction
